Measured values reported in article PMC3084709, “TMEFF2 Is a PDGF-AA Binding Protein with Methylation-Associated Gene Silencing in Multiple Cancer Types Including Glioma” (PLoS ONE, 2011).

Target: T1, recombinant human PDGF receptor α extracellular domain (PDGF sRα) (human, UniProt P16234 24-528, biotin (biotin-X-NHS) in the direct-binding ELISA on PDGF-coated wells; not said to be biotinylated in the blocking ELISA)
T1 construct: PDGF receptor α, human, extracellular domain; also called soluble PDGF receptor α; sRα-bio; source: bought: R&D Systems
T1 sequence (P16234 24-528): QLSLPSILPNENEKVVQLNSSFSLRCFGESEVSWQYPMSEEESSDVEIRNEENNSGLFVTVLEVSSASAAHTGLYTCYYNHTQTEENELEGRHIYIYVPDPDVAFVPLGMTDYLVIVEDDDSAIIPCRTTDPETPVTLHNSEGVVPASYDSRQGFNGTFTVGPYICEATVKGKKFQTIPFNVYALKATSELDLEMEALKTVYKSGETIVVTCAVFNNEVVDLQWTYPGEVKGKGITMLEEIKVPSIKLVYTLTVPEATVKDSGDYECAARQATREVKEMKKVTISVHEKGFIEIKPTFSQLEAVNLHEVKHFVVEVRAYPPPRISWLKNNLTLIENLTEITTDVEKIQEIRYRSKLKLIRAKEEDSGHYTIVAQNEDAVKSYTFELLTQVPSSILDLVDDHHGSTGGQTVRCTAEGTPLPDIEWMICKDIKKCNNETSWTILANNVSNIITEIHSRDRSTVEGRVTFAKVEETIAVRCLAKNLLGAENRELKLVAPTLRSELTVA
Assay: ELISA; serially diluted biotinylated PDGF sRα added to PDGF-coated wells; detected with streptavidin-HRP
Details: both partners purified

B1: recombinant human PDGF-BB (ligand, UniProt P01127 82-190, looked up)
chain: SLGSLTIAEPAMIAECKTRTEVFEISRRLIDRTNANFLVWPPCVEVQRCSGCCNNRNVQCRPTQVQLRPVQVRKIEIVRKKPIFKKATVTLEDHLACKCETVAAARPVT
notes: PDGF-B chain, human; homodimer; source: bought: R&D Systems
binding result: binds
